One test deals with fibronectin (UniProt P02751). Description: SPR; plasminogen or fibronectin immobilised on CM5 chips by amine coupling (600 RU); recombinant enolase proteins 0-4000 nM injected at 30 uL/min for 180 s, 20 °C, dissociation 1000 s; 10 mM HEPES, 150 mM NaCl, 3 mM EDTA, 0.05% surfactant P20; Biacore X100.
The target in the next test is plasminogen. The test is described as above.
Test [1] has as its target Recombinant M. hyorhinis enolase K451L (Mycoplasma hyorhinis (strain HUB-1)) (UniProt P0DXB0).
The target of test [2] is Recombinant M. hyorhinis enolase K451L-K452L (Mycoplasma hyorhinis (strain HUB-1)) (UniProt P0DXB0).
The target of test [3] is Recombinant M. hyorhinis enolase K452L (Mycoplasma hyorhinis (strain HUB-1)) (UniProt P0DXB0).

Chain of fibronectin (P02751 32-2477): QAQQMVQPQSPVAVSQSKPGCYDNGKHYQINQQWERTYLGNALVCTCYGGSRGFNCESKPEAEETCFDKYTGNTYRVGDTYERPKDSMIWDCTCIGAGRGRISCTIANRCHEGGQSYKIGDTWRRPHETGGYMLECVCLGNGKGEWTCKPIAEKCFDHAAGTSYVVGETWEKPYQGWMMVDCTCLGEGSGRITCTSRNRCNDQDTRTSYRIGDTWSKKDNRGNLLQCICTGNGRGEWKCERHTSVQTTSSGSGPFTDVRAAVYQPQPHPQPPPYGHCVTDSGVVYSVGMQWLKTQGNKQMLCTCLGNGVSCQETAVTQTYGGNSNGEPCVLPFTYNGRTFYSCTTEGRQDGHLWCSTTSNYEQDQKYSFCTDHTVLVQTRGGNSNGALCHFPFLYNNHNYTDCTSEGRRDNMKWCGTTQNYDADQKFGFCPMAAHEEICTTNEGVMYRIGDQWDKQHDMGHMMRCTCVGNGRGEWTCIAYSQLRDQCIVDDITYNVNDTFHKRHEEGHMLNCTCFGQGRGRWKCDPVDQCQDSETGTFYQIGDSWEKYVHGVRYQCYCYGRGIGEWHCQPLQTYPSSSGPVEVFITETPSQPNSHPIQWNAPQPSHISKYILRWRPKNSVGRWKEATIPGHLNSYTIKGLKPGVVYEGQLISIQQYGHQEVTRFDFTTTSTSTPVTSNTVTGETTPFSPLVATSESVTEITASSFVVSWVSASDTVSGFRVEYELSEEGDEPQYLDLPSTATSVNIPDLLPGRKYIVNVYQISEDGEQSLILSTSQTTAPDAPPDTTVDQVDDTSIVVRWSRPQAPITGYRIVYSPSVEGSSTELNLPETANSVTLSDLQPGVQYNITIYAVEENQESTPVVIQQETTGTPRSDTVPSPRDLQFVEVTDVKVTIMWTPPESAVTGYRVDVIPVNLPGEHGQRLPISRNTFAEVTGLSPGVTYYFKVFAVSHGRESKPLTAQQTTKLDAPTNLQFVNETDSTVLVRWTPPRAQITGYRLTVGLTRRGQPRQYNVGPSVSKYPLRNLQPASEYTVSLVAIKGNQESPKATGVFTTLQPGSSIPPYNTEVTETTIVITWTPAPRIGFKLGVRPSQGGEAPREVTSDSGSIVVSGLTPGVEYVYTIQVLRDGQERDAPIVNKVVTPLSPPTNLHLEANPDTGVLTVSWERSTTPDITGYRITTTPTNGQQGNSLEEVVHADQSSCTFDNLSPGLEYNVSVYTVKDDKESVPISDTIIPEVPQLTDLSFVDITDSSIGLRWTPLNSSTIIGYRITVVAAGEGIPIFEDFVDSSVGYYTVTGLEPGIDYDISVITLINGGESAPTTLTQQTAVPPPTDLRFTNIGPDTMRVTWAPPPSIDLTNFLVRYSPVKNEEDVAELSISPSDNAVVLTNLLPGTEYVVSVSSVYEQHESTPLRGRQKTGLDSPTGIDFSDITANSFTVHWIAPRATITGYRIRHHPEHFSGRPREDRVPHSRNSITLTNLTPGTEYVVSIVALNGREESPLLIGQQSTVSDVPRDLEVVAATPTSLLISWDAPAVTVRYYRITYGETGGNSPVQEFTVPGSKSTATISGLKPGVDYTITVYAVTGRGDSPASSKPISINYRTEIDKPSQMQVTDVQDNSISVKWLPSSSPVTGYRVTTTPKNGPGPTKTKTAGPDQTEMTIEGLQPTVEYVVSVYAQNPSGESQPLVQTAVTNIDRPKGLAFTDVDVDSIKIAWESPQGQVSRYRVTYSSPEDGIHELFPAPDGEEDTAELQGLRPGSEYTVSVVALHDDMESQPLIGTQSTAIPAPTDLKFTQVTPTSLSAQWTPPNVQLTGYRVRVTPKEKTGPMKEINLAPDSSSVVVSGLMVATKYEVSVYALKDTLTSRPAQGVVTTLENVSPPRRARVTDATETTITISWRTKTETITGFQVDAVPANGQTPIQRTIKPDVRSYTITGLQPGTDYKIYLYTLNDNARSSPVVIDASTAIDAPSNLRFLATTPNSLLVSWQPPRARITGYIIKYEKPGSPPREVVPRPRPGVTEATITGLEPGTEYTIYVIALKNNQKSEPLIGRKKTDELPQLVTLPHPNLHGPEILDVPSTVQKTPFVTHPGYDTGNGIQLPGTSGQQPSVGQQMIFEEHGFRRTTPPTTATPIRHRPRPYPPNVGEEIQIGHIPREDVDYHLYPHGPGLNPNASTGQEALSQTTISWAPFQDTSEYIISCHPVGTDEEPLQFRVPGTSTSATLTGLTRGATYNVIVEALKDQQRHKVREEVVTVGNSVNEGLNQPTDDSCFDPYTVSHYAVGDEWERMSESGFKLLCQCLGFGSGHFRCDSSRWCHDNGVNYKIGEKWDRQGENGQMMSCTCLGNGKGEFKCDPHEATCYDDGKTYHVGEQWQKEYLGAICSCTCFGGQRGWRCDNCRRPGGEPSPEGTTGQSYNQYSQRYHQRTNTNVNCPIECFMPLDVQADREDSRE

As to “Recombinant M. hyorhinis enolase K452L (from UniProt P0DXB0 1-450) (enzyme)”, the dissociation constant (Kd) with fibronectin is 70.5 nM; with plasminogen, 15.8 nM.

For “Recombinant M. hyorhinis enolase K451L-K452L (from UniProt P0DXB0 1-450) (enzyme)”, the equilibrium dissociation constant (Kd) stood at 75.2 nM with fibronectin and 59.4 nM in the test with plasminogen.

Turning to “Recombinant M. hyorhinis enolase, wild-type (from UniProt P0DXB0 1-450) (enzyme; other documents disagree on this pair)”, the dissociation constant Kd in the test with fibronectin is 14.3 nM.

With plasminogen (natural protein), the values for the plasmin activity (OD 405 nm) of plasminogen held in wells coated with the mutant, after tPA, compared with WT rEno-bound plasminogen (printed percent, seemingly the decrease) in test [1], in test [2] and in test [3] were 39.5%, 50.1% and 30.5%, respectively.

On to “Recombinant M. hyorhinis enolase K451L (from UniProt P0DXB0 1-450) (enzyme)”, for which the figures for the Kd with fibronectin and with plasminogen were 77.9 nM and 28 nM, respectively.
